Reference: paper PMC5482573 (eLife, 2017)

T1: α-COP (M. musculus, in recombinant coatomer) (M. musculus, UniProt Q8CIE6 1-1224)
T1 construct: alpha-COP, coatomer subunit alpha, M. musculus; Stood in the assays as a subunit of the whole heptameric coatomer; source: SF9 insect cells (baculovirus), as part of recombinant coatomer, purified
T1 sequence: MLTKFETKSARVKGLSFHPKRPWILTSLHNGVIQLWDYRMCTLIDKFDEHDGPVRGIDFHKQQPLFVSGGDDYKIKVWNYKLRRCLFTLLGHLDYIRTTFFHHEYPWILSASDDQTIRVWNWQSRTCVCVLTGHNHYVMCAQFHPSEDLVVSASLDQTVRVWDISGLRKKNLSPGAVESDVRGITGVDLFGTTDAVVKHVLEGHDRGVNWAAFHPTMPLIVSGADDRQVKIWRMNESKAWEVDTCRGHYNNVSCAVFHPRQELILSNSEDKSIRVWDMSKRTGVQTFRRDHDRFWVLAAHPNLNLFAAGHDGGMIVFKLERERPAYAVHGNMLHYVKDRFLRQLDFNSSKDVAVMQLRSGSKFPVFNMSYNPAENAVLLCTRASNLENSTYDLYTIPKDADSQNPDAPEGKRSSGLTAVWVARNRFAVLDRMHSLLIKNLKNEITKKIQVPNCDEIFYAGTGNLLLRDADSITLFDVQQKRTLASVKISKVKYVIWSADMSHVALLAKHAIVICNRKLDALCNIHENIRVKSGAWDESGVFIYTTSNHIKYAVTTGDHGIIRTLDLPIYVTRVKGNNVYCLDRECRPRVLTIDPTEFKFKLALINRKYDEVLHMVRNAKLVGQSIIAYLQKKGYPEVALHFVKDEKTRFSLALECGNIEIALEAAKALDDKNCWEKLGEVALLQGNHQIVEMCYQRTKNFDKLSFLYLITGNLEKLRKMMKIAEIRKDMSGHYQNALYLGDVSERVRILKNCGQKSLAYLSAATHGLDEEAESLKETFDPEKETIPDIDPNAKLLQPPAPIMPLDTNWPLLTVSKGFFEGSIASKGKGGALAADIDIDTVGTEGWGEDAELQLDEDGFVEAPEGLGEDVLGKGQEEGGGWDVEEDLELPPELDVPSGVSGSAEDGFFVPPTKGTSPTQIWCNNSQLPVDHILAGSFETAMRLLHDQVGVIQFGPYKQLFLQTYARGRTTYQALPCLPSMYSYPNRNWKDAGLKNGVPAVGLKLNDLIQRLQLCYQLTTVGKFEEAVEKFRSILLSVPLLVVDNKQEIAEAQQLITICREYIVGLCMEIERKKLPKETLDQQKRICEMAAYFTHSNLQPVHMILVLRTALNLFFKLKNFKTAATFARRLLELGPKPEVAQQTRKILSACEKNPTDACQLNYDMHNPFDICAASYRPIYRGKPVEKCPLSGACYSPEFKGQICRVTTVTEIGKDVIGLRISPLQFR

B1: R. norvegicus ArfGAP2, full-length, N-terminally His-tagged (enzyme)
chain: not shown
notes: PDB 2P57 was fitted for it; source: insect cells, purified (Ni-NTA, gel filtration)
B2: β-COP (M. musculus, in recombinant coatomer) (natural protein)
chain: MTAAENVCYTLINVPMDSEPPSEISLKNDLEKGDVKSKTEALKKVIIMILNGEKLPGLLMTIIRFVLPLQDHTIKKLLLVFWEIVPKTTPDGRLLHEMILVCDAYRKDLQHPNEFIRGSTLRFLCKLKEAELLEPLMPAIRACLEHRHSYVRRNAVLAIYTIYRNFEHLIPDAPELIHDFLVNEKDASCKRNAFMMLIHADQDRALDYLSTCIDQVQTFGDILQLVIVELIYKVCHANPSERARFIRCIYNLLQSSSPAVKYEAAGTLVTLSSAPTAIKAAAQCYIDLIIKESDNNVKLIVLDRLVELKEHPAHERVLQDLVMDILRVLSTPDLEVRKKTLQLALDLVSSRNVEELVIVLKKEVIKTNNVSEHEDTDKYRQLLVRTLHSCSVRFPDMAANVIPVLMEFLSDSNEAAAADVLEFVREAIQRFDNLRMLIVEKMLEVFHAIKSVKIYRGALWILGEYCSTKEDIQSVMTEVRRSLGEIPIVESEIKKEAGELKPEEEITVGPVQKLVTEMGTYATQSALSSSRPTKKEEDRPPLRGFLLDGDFFVAASLATTLTKIALRYVALVQEKKKQNSFVAEAMLLMATILHLGKSSLPKKPITDDDVDRISLCLKVLSECSPLMNDIFNKECRQSLSQMLSAKLEEEKLSQKKESEKRNVTVQPDDPISFMQLTAKNEMNCKEDQFQLSLLAAMGNTQRKEAADPLASKLNKVTQLTGFSDPVYAEAYVHVNQYDIVLDVLVVNQTSDTLQNCTLELATLGDLKLVEKPSPLTLAPHDFANIKANVKVASTENGIIFGNIVYDVSGAASDRNCVVLSDIHIDIMDYIQPATCTDAEFRQMWAEFEWENKVTVNTNMTDLNDYLQHILKSTNMKCLTPEKALSGYCGFMAANLYARSIFGEDALANVSIEKPVHQGPDAAVTGHIRIRAKSQGMALSLGDKINLSQKKTSL
notes: beta-COP, coatomer subunit beta, M. musculus. numbers count on: the construct with its N-terminal His-tag, shifted by 15 residues relative to Q9JIF7; Stood in the assays as a subunit of the whole heptameric coatomer; The coatomer of the photo-cross-linking is called only 'coatomer'; source: SF9 insect cells (baculovirus), as part of recombinant coatomer, purified
B3: β’-COP (M. musculus, in recombinant coatomer) (natural protein)
chain: MPLRLDIKRKLTARSDRVKSVDLHPTEPWMLASLYNGSVCVWNHETQTLVKTFEVCDLPVRAAKFVARKNWVVTGADDMQIRVFNYNTLERVHMFEAHSDYIRCIAVHPTQPFILTSSDDMLIKLWDWDKKWSCSQVFEGHTHYVMQIVINPKDNNQFASASLDRTIKVWQLGSSSPNFTLEGHEKGVNCIDYYSGGDKPYLISGADDRLVKIWDYQNKTCVQTLEGHAQNVSCASFHPELPIIITGSEDGTVRIWHSSTYRLESTLNYGMERVWCVASLRGSNNVALGYDEGSIIVKLGREEPAMSMDANGKIIWAKHSEVQQANLKAMGDTEIKDGERLPLAVKDMGSCEIYPQTIQHNPNGRFVVVCGDGEYIIYTAMALRNKSFGSAQEFAWAHDSSEYAIRESNSIVKIFKNFKEKKSFKPDFGAESIYGGFLLGVRSVNGLAFYDWENTELIRRIEIQPKHIFWSDSGELVCIATEESFFILKYLSEKVLAAQETHEGVTEDGIEDAFEVLGEIQEIVKTGLWVGDCFIYTSSVNRLNYYVGGEIVTIAHLDRTMYLLGYIPKDNRLYLGDKELNIVSYSLLVSVLEYQTAVMRRDFSMADKVLPTIPKEQRTRVAHFLEKQGFKQQALTVSTDPEHRFELALQLGELKIAYQLAVEAESEQKWKQLAELAISKCQFSLAQECLHHAQDYGGLLLLATASGNASMVNKLAEGAERDGKNNVAFMSYFLQGKLDACLELLIRTGRLPEAAFLARTYLPSQVSRVVKLWRENLSKVNQKAAESLADPTEYENLFPGLKEAFVVEEWVKETHADLWPAKQYPLVTPNEERNVMEEAKGFQPSRPTAQQEPDGKPASSPVIMASQTTHKEEKSLLELEVDLDNLELEDIDTTDINLDEDILDD
notes: beta'-COP, coatomer subunit beta', M. musculus; Stood in the assays as a subunit of the whole heptameric coatomer; source: SF9 insect cells (baculovirus), as part of recombinant coatomer, purified

Experiments:
Details in all cases: both partners purified
[1] = target: B2; assay: cryo-EM structure; COPI coated vesicles with GTPγS incubated 15–20 min with a 10 molar excess of ArfGAP2; subtomogram averaging, difference map and classification; class with ArfGAP2 at 10.1 Å
[2] = target: B3; assay: as above
[3] = target: B1; assay: as above
[4] = target: B2; assay: cryo-EM structure; cryo-electron tomography and subtomogram averaging of the COPI leaf, 9.2 Å; coat assembled in vitro from coatomer (840 nM), Arf1 (2 μM), GTPγS, ARNO and GUVs, 37°C, 50 mM HEPES pH 7.4, 50 mM KOAc, 1 mM MgCl2
[5] = target: T1, α-COP (M. musculus, in recombinant …); assay: as above

Binder	binding result [1]	binding result [2]	binding result [3]	binding result [4]	binding result [5]
B1	binds	binds	–	–	–
S. cerevisiae myristoylated Arf1 (natural protein, myristoylated, Arf1 (ADP-ribosylation factor 1), S. cerevisiae, loaded with GTPγS on membranes; also called γArf1 (central); βArf1 (peripheral); source: E. coli, purified) MGLFASKLFSNLFGNKEMRILMVGLDGAGKTTVLYKLKLGEVITTIPTIGFNVETVQYKNISFTVWDVGGQDRIRSLWRHYYRNTEGVIFVVDSNDRSRIGEAREVMQRMLNEDELRNAAWLVFANKQDLPEAMSAAEITEKLGLHSIRNRPWFIQATCATSGEGLYEGLEWLSNSLKNST	–	–	binds	binds	–
B2	–	–	–	–	binds
B3	–	–	–	binds	binds
